The values that follow come from paper PMC9640265 (The Journal of General Physiology, 2022).

B1: NaKΔ18 (domain or fragment, Bacillus cereus, UniProt Q81HW2 19-114, looked up)
chain: WKDKEFQVLFVLTILTLISGTIFYSTVEGLRPIDALYFSVVTLTTVGDGNFSPQTDFGKIFTILYIFIGIGLVFGFIHKLAVNVQLPSILSNRKKE
B2: L61A NaKΔ18 (domain or fragment, Bacillus cereus, UniProt Q81HW2 19-114, looked up)
chain: WKDKEFQVLFVLTILTLISGTIFYSTVEGLRPIDALYFSVVTATTVGDGNFSPQTDFGKIFTILYIFIGIGLVFGFIHKLAVNVQLPSILSNRKKE
B3: L61T NaKΔ18 (domain or fragment, Bacillus cereus, UniProt Q81HW2 19-114, looked up)
chain: WKDKEFQVLFVLTILTLISGTIFYSTVEGLRPIDALYFSVVTTTTVGDGNFSPQTDFGKIFTILYIFIGIGLVFGFIHKLAVNVQLPSILSNRKKE
B4: L35A NaKΔ18 (domain or fragment, Bacillus cereus, UniProt Q81HW2 19-114, looked up)
chain: WKDKEFQVLFVLTILTAISGTIFYSTVEGLRPIDALYFSVVTLTTVGDGNFSPQTDFGKIFTILYIFIGIGLVFGFIHKLAVNVQLPSILSNRKKE
B5: L35A/L61A NaKΔ18 (domain or fragment, Bacillus cereus, UniProt Q81HW2 19-114, looked up)
chain: WKDKEFQVLFVLTILTAISGTIFYSTVEGLRPIDALYFSVVTATTVGDGNFSPQTDFGKIFTILYIFIGIGLVFGFIHKLAVNVQLPSILSNRKKE

One may read the stoichiometry N as the number of molecules, sites or subunits per partner or assembly.

This series deals with the molecule itself. Briefly: SEC. On the technique in general: Size exclusion chromatography separates by hydrodynamic size, large species first.
Take B1: the “stoichiometry N” value is 4.

Consider B2, for which the “stoichiometry N” value came out at 4. Under B3 stands 4; under B4, 4; under B5, 4.
